Blank lines part the entries; values can stand above or below the binder they belong to. Ends that are not written are not given here. * marks the point of attachment. PP1 = 3,5-bis[[bis(2-pyridylmethyl)amino]methyl]benzoic acid, O=C(c1cc(CN(Cc2ccccn2)Cc2ccccn2)cc(CN(Cc2ccccn2)Cc2ccccn2)c1)*; X2 = 7‑methoxycoumarin‑3‑carboxylic acid, COc1ccc2cc(C(=O)*)c(=O)oc2c1
Tests used:
α-casein [1] = biological target: T1, α-casein (UniProt P02662 16-214, between 8 and 13 phosphate groups, at serine side chains); assay: fluorescence titration, 100 nM fluorescein labelled binder, α-casein 1 nM to 10 µM, 1:1 model
T1 construct: Commercial α-casein is a mixture of subtypes; also called a-casein
T1 sequence (looked up): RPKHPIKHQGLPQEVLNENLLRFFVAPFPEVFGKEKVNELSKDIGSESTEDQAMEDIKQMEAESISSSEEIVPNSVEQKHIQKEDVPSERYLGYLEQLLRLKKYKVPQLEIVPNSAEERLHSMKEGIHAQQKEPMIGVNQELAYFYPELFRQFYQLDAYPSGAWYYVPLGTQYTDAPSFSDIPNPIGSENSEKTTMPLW
Experimental: (§1) For a more accurate determination of the dissociation constant, titration with protein at a binder concentration of 100 nM in 10 mM HEPES buffer and 150 mM NaCl at pH 7.2 was carried out (FIG. 12). At this concentration a more strongly emitting probe was required and fluorescein was attached to the side chain of Cys-24 by reacting the maleimide group with the free thiol of the polypeptide after removal of the acetamidomethyl (Acm) protection group. The binder concentration was kept constant at 100 nM and a series of samples were prepared where only the concentration of α-casein was varied.
(§2) A series of solutions were prepared. […] All solutions were prepared in HEPES buffer (pH=7.2, 10 mM HEPES, 150 mM NaCl).

α-casein [2] = biological target: T1, α-casein; assay: fluorescence titration, binder fixed at 100 nM, concentration of total α-casein varied [upper panel, [a-casein]tot]
Experimental: as §1, §2

α-casein [3] = biological target: T1, α-casein; assay: fluorescence titration, binder fixed at 100 nM, plotted against the free concentration of α-casein [lower panel, [a-casein]free]
Experimental: as §1

α-casein [4] = biological target: T1, α-casein; assay: three-step fluorescence titration, 500 nM binder; rough estimate
Experimental: In a preliminary and simple assay executable in microtitre plate format, each of the eight binder candidates at a concentration of 500 nM in 10 mM HEPES buffer and 150 mM NaCl at pH 7.2, equipped with the fluorophor 7-methoxycoumarin-3-carboxylic acid, were titrated with α-casein in three steps (FIG. 8). Concentrations of peptides were determined from the absorbance of the coumarine probe and stock solutions at concentrations of 5 μM were prepared from which aliqiuots were transferred to the microtitre plate. […] Saturation within experimental error at those concentrations is compatible with low nM affinity and tight binding.
In contrast, the differences in relative responses to increased concentrations of α-casein are related to differences in affinity. […] Nevertheless, it is a quick and informative experiment. From the fluorescence titrations the 4-series of binder candidates was estimated to have dissociation constants of around 5 nM or lower. […] It is concluded that the 3-series binders have dissociation constants in the high nM to the μM range. The nearly identical affinities within the 3-series and within the 4-series is probably fortuitous.

Kd (α-casein [1]): 17 nM
EC50 (read off the curve) (α-casein [2]): ~70 nM
EC50 (read off the curve) (α-casein [3]): ~20 nM
B1: 4-C15L8-PP1* (fluorescein on Cys-24) (designed binder)
chain: NAADLEAK(PP1)IRHLREKLAARGPRDC(fluorescein maleimide)AQLAEQLARRFERFARAG-NH2
modifications: not fully specified (N-terminus); also: PP1 chelating two Zn2+, group on Lys15 not given here

Kd (α-casein [4]): ≤ 5 nM
B2: 4-C25L22-PP1 (coumarin form, with Zn2+) (designed binder)
chain: NAADLEARIRHLRERLAARGPK(PP1)DCK(X2)QLAEQLARAFERFARAG-NH2
modifications: not fully specified (residue 24, N-terminus); also: two Zn2+ chelated by PP1
notes: Named only as a member of the 4-series
